Molecular target: epidermal growth factor receptor (EGFR) (human (endogenous in LNCaP, DU145 and PC-3)) (UniProt P00533)
Experiment: flow cytometry on cells

targeted toxin EGF-PE40
fold reduction of binding compared to EGF: 28.6 to 76.1 fold
